Source: the supplement of paper PMC10567573

B1: LRRC45 (parent)
chain: FQTRQEMTSMSAELKMRAIQAEER

Variants of: B1
Test: protein stability index of a GFP-peptide fusion (GPS, HEK-293T) (PSI 1-6); higher = more stable
Settings: c terminus: a fixed tail appended
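Further: lentivirally expressed fusions sorted by FACS into six bins by GFP to DsRed ratio, PSI derived from sequencing read proportions per bin multiplied by bin number.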

Protein stability index: each site, then its substitutions
E13: A 3.62 | P 3.69 | W 2.97 | F 3.1 | R 3.57 | Q 4.04 | H 3.08 | V 3.35 | M 3.47 | K 3.61 | T 3.53 | C 3.74 | G 3.6 | Y 2.73 | I 3.21 | N 3.1 | D 3.82 | L 3.1 | S 3.83
K15: I 3.27 | S 4.23 | V 3.29 | T 4.01 | F 2.97 | M 3.26 | H 4.16 | N 4.26 | P 4.38 | L 3.05 | D 4.65 | E 4.88 | W 2.88 | G 4.2 | Q 4.12 | A 4.16 | C 3.86 | Y 3.59 | R 4.38
E23: K 3.53 | G 3.56 | M 3.16 | R 3.54 | T 3.16 | Q 4.11 | Y 2.88 | V 3.22 | A 3.16 | W 2.26 | L 3.1 | S 3.52 | N 3.32 | P 3.81 | D 3.33 | I 3.7 | F 2.99 | H 3.39 | C 2.61
L14: Y 3.74 | T 4.38 | W 3.2 | R 4.23 | V 4.21 | F 3.21 | K 4.12 | A 4.16 | Q 4.28 | P 3.99 | H 4.34 | M 3.83 | E 3.99 | S 4.11 | G 4.24 | C 3.72 | D 3.89 | I 4.13 | N 4.18
E22: S 3.28 | H 2.92 | C 3.18 | N 3.44 | D 3.64 | V 3.18 | F 2.56 | M 3.64 | T 3.23 | Q 3.37 | R 3.18 | L 2.59 | I 3.1 | W 2.56 | Y 3.9 | A 3.56 | P 2.74 | K 3.57 | G 2.53
A18: P 3.45 | G 3.81 | V 3.41 | W 3.54 | M 3.73 | D 4.33 | H 3.33 | Y 3.69 | N 3.88 | S 3.82 | L 3.92 | Q 3.85 | T 3.95 | I 3.75 | K 3.72 | E 4.08 | R 3.96 | F 3.51 | C 3.69
Q20: D 3.99 | F 2.26 | Y 3.08 | R 3.2 | W 2.74 | I 2.8 | S 4.11 | C 3 | P 3.76 | L 3.57 | T 3.9 | V 3.28 | G 3.62 | N 3.83 | E 4.34 | M 3.52 | H 3.98 | K 3.5 | A 4.3
A12: D 4.26 | I 3.3 | S 4.24 | W 2.04 | V 3.47 | P 4.28 | C 3.71 | Q 4.29 | R 3.73 | F 3.3 | K 3.92 | Y 3.39 | E 4.44 | G 4.44 | N 3.3 | H 4.12 | T 3.94 | L 3.92 | M 3.72
I19: D 4.73 | K 4.68 | M 3.84 | S 4.38 | A 4.53 | W 3.04 | Y 3.8 | P 3.84 | V 4.28 | G 3.89 | H 4.38 | R 4.19 | E 4.55 | F 3.81 | N 4.27 | Q 4.09 | L 4.08 | T 4.21 | C 3.96
S11: W 1.96 | E 3.98 | P 3.73 | T 3.73 | G 3.97 | M 3.68 | A 3.88 | R 3.83 | Y 2.93 | K 3.67 | N 3.92 | Q 4.16 | D 4.54 | V 3.74 | H 4.43 | I 3.09 | F 4.22 | C 3.63 | L 3.85
M10: V 3.94 | K 4.07 | I 3.69 | R 4.16 | Q 4.21 | H 4.12 | Y 3.97 | N 4.14 | T 4.28 | P 4.55 | G 4.34 | E 3.51 | F 4.1 | W 3.07 | S 4.1 | L 4.27
R24: Q 4.5 | N 4.05 | F 3.19 | Y 3.71 | W 2.85 | K 4.26 | T 3.96 | I 3.94 | L 4.05 | P 3.88 | C 3.4 | S 4.3 | M 3.54 | G 4.18 | D 4.29 | V 3.67 | E 4.5 | H 4.01 | A 4.19
A21: K 3.76 | Q 3.79 | S 3.81 | Y 3.76 | I 3.49 | W 3.43 | E 4.32 | T 3.83 | N 4.15 | L 4 | H 4.03 | D 4.63 | R 3.8 | F 3.89 | M 3.57 | G 3.97 | P 3.89 | C 3.68 | V 3.59
R17: C 4.01 | T 4.08 | D 4.59 | P 4.33 | F 2.84 | A 4.34 | E 4.33 | N 4.07 | K 4.25 | Y 3.67 | Q 3.89 | W 2.3 | V 3.75 | L 3.95 | M 4.18 | I 3.94 | H 4.09 | G 3.82 | S 3.43
M16: D 4.38 | K 4.36 | V 3.99 | S 4.37 | T 3.96 | Q 4.03 | H 3.88 | N 4.16 | C 3.79 | W 3.66 | A 4.39 | R 4.21 | L 4.24 | Y 3.83 | F 3.75 | P 3.98 | G 4 | E 4.68 | I 3.52
